Experiment [1] addresses recombinant P. vivax plasmepsin V (residues R35-R476), N-terminal fusion tag removed with TEV protease (Plasmodium vivax) (UniProt A5K302). The experiment can be described thus: SPR, Biacore 4000, plasmepsin V amine-coupled on a CM5 chip, 1:1 fit. For orientation: In SPR one partner is held on a chip, and binding of the other changes the refractive index at the surface.
The target is the same in experiment [2]. Put plainly: SPR, Biacore 4000, plasmepsin V amine-coupled on a CM5 chip, compound as analyte, 1:1 fit, 25 °C.
For experiment [3] the target is unchanged. The experiment can be described thus: cell-based or functional assay.
Experiment [4] has as its target recombinant P. falciparum plasmepsin V (residues N80-R528) (Plasmodium falciparum) (UniProt Q8I6Z5). Put plainly: cell-based or functional assay.
The target in experiment [5] is recombinant P. vivax plasmepsin V (residues R35-R476), N-terminal fusion tag removed with TEV protease (Plasmodium vivax) (UniProt A5K302). The experiment can be described thus: SPR, Biacore 4000, plasmepsin V amine-coupled on a CM5 chip.

As a reminder, the koff is the rate constant with which the complex falls apart. By Kd is commonly meant a measure of binding affinity in units of concentration.

recombinant P. vivax plasmepsin V (residues R35-R476), N-terminal fusion tag removed with TEV protease (Plasmodium vivax), sequence (A5K302 35-476, tags or fused parts left off): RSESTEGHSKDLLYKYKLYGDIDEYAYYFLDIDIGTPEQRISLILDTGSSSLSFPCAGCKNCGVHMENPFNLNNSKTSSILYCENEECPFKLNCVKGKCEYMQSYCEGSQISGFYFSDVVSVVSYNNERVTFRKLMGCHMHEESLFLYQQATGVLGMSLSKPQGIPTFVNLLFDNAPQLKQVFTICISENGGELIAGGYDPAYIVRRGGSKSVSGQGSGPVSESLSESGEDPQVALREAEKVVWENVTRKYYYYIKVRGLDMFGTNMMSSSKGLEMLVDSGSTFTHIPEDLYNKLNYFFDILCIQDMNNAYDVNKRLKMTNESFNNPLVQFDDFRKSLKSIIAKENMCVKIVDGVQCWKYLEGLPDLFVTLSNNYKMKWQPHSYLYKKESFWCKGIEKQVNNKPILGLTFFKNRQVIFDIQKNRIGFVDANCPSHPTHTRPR
recombinant P. falciparum plasmepsin V (residues N80-R528) (Plasmodium falciparum), sequence (Q8I6Z5 80-528): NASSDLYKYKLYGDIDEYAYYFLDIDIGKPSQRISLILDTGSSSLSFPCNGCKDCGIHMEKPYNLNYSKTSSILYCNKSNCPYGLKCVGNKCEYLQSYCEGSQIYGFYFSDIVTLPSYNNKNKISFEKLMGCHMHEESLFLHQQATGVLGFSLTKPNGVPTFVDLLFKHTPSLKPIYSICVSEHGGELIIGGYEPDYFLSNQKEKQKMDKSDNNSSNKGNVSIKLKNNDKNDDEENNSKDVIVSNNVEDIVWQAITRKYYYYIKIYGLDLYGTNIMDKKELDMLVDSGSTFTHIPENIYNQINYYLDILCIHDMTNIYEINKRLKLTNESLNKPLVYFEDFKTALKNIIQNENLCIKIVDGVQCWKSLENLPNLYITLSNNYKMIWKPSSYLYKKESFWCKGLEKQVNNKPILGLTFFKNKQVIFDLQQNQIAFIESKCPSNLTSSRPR

Consider WEHI-916 (peptide), for which, in experiment [1], the koff was 0.00247 s⁻¹. For the same substance, the Kd in experiment [2] was 42 nM. Moreover, the IC50, inhibition of cleavage of the fluorogenic KAHRP PEXEL peptide was 8.2 nM in experiment [3] and 12.9 nM in experiment [4].
Consider “WEHI-842, Cbz-Cav(NH2)-Val-Sta-NH(CH2)2Ph.TFA (peptide)”, for which, in experiment [1], the koff was 0.00111 s⁻¹. In addition, the fold affinity against WEHI-916 in experiment [5] was over 2 fold. In experiment [2], the Kd is 13.4 nM. Further, the IC50, inhibition of cleavage of the fluorogenic KAHRP PEXEL peptide in experiment [3] stood at 1.6 nM.

The record behind these values is patent US20190065668A1, “STRUCTURE OF […] IN COMPLEX WITH AN INHIBITOR AND USES THEREOF” (priority 2015, published 2019).
